Paper PMC3024946, “Hydroxyproline-containing collagen analogs trigger the release and activation of collagen-sequestered proMMP-2 by competition with prodomain-derived peptide P33-42” (Fibrogenesis & Tissue Repair, 2011)

Experiments:
[1] = target: human collagen type I (CI) (human) (UniProt P02452); test: SPR; as a4, MMP mixed with a 10-fold molar excess of (GPO)10
[2] = target: human collagen type I (CI) (human) (UniProt P02452); test: SPR; CI immobilised on a sensor chip; pro- or actMMP-2 100 nM in MMP activity buffer (50 mM Tris-HCl pH 7.5, 200 mM NaCl, 5 mM CaCl2, 0.02% Brij-35) with 1 μM Ro 28-2653; 25°C; no competitor
[3] = target: human collagen type VI (CVI) (human) (UniProt P12109); test: radioligand binding; collagens, chains, fragments and peptides (2 μg/well or 200 ng/well) immobilised on polystyrene microtiter wells; 2 ng [125I]-MMP per well, 4°C, 2 h; washed with PBS, 0.05% Tween 20; residual radioactivity in a gamma counter
[4] = target: cyanogen bromide peptide 6 of the α1 chain of collagen type I (α1CB6) (human); test: as above
[5] = target: cyanogen bromide peptide 3 of the α1 chain of collagen type I (α1CB3) (human); test: as above
[6] = target: GAP, H-Gly-Ala-Cys-(Gly-Ala-Pro)5-Gly-Phe-Hyp-Gly-Glu-Arg-(Gly-Ala-Pro)5-NH2; test: as above
[7] = target: human collagen type III (CIII) (human) (UniProt P02461); test: as above
Chain of human collagen type III (CIII) (human) (P02461 24-1221): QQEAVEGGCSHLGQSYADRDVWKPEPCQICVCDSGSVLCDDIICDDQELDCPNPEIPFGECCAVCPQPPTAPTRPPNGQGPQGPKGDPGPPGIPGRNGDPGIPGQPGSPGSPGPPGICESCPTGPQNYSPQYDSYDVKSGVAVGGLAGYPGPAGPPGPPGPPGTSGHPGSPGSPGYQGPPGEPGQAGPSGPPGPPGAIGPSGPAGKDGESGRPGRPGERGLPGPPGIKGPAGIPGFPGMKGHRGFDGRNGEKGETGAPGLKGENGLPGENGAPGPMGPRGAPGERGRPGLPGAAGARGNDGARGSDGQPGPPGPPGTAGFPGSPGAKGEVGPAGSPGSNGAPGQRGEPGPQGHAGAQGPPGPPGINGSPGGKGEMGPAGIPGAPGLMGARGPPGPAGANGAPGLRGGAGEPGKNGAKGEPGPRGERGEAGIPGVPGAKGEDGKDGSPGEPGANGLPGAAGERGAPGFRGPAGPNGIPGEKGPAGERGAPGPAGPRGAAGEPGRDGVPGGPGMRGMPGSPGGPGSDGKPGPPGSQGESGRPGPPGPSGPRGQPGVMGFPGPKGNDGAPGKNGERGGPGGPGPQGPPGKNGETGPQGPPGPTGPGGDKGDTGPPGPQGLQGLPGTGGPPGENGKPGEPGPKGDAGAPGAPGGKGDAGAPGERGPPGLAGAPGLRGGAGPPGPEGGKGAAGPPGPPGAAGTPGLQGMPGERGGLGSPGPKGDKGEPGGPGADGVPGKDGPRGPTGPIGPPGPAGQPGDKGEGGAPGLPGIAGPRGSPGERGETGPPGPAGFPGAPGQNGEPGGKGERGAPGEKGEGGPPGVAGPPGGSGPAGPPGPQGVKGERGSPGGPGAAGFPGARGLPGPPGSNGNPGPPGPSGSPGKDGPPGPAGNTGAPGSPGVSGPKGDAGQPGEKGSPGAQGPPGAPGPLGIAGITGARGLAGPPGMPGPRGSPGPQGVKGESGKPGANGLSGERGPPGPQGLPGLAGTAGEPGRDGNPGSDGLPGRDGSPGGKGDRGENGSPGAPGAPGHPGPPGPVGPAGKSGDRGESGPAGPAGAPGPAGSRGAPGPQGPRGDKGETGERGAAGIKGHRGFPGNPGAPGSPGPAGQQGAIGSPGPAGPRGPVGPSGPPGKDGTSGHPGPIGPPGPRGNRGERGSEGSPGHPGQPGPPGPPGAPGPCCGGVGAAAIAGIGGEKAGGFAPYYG

[8] = target: cyanogen bromide peptide 7 of the α1 chain of collagen type I (α1CB7) (human); test: as above
[9] = target: cyanogen bromide peptide 8 of the α1 chain of collagen type I (α1CB8) (human); test: as above
[10] = target: α1 chain of collagen type I (α1(I)) (human) (UniProt P02452); test: as above
Chain of α1 chain of collagen type I (α1(I)) (human) (P02452 162-1218): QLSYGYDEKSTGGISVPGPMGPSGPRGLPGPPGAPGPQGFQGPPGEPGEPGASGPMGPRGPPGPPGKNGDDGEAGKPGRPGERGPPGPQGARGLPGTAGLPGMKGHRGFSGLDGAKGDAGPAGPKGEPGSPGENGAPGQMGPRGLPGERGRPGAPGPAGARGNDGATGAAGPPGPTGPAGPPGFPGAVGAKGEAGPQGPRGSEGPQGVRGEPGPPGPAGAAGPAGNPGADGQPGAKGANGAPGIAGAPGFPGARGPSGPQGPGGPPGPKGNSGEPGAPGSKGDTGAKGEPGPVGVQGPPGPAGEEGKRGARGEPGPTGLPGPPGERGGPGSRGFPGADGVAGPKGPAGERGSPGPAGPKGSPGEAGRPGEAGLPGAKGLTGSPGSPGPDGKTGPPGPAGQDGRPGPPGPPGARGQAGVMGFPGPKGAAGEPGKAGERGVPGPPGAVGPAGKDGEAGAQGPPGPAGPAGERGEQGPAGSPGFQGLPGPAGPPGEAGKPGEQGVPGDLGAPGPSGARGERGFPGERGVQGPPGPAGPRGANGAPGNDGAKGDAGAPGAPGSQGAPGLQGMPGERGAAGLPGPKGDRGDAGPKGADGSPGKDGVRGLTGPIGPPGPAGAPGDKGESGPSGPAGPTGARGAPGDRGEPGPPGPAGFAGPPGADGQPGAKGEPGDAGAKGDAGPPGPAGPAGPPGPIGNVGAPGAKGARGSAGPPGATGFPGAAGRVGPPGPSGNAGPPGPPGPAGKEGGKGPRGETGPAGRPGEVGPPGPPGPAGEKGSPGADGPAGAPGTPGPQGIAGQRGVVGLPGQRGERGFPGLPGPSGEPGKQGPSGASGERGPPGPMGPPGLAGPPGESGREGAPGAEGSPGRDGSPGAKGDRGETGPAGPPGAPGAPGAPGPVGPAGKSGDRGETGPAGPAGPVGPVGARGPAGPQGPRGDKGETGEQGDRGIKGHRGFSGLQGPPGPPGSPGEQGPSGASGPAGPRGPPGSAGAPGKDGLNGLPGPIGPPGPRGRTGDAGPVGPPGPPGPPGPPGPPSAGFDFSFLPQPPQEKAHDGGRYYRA

[11] = target: α2 chain of collagen type I (α2(I)) (human) (UniProt P08123); test: as above
[12] = target: human collagen type I (CI) (human) (UniProt P02452); test: as above
[13] = target: (GPO)10, H-Gly-Cys-Hyp-(Gly-Pro-Hyp)10-Gly-Cys-Hyp-Gly-NH2; test: as above
[14] = target: (GPP)10, H-Gly-Cys-Pro-(Gly-Pro-Pro)10-Gly-Cys-Pro-Gly-NH2; test: as above
[15] = target: human collagen type I (CI) (human) (UniProt P02452); test: SPR; CI immobilised on a dextran sensor chip by amine coupling; MMP 100 nM as analyte in PBS, 0.05% Tween 20 (no divalent metal ions); 25°C, 10 μl/min; 1:1 model with drifting baseline; without (GPO)10
[16] = target: human collagen type I (CI) (human) (UniProt P02452); test: SPR; as a6, with a 10-fold molar excess of (GPO)10
[17] = target: human collagen type I (CI) (human) (UniProt P02452); test: SPR; as a6, with a 10-fold molar excess of (GPP)10
[18] = target: human collagen type I (CI) (human) (UniProt P02452); test: SPR; CI immobilised on a sensor chip; 100-250 nM proMMP-2 mixed with up to 100-fold molar excesses of P33-42 in MMP activity buffer with 1 μM Ro 28-2653
[19] = target: human collagen type I (CI) (human) (UniProt P02452); test: SPR; as a6, with a 10-fold molar excess of (POG)5

Chain of actMMP-9 (86-kDa trypsin-activated form of matrix metalloproteinase-9) (P14780 107-707): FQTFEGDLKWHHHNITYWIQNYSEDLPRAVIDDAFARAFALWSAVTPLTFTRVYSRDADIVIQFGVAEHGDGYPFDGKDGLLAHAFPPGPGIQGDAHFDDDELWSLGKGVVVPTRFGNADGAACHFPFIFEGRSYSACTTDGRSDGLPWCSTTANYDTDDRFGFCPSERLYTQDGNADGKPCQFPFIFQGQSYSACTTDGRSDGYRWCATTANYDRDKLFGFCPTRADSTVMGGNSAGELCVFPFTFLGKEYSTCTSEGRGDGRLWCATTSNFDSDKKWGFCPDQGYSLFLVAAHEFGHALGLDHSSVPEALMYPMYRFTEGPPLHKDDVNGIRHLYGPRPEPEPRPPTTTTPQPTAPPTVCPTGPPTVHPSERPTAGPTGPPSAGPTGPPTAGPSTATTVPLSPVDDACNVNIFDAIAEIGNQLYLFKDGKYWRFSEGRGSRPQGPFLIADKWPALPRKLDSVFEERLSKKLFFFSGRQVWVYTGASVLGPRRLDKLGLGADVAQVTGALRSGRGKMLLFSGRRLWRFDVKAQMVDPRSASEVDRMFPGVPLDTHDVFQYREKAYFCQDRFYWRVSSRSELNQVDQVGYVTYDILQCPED
Chain of human collagen type I (CI) (human) (P02452 23-1218, chain 1 of 2): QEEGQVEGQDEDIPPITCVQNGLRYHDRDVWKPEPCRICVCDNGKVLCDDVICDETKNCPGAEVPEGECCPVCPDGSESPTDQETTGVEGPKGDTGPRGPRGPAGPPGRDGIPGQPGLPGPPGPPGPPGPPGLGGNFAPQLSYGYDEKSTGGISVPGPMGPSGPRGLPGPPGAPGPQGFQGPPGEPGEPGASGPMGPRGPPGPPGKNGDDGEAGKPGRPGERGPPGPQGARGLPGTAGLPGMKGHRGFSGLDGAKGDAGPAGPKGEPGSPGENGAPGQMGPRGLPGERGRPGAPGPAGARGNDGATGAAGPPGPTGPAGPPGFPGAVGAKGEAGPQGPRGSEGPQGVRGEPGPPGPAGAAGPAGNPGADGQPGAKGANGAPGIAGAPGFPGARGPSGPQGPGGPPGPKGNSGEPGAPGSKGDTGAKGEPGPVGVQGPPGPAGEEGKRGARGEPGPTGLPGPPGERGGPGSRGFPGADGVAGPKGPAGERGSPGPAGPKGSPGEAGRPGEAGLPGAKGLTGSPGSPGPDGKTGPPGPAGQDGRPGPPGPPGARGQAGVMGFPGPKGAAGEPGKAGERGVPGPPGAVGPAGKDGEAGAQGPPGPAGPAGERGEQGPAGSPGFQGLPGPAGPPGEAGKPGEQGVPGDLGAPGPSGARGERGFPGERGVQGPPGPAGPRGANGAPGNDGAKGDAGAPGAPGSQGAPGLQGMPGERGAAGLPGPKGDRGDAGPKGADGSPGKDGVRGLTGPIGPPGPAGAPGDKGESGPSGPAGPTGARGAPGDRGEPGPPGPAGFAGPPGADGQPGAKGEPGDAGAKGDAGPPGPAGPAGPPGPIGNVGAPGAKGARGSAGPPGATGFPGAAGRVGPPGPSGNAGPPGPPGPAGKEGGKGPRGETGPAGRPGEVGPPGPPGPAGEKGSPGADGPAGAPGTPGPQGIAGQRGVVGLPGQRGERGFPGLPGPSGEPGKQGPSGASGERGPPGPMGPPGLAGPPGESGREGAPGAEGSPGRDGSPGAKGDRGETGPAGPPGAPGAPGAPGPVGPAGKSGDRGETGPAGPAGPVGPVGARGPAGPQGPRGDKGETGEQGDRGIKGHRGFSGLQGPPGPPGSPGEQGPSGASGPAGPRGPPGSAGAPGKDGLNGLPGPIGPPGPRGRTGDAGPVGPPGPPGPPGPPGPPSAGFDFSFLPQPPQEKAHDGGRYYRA
Chain of human collagen type I (CI) (human) (P08123 80-1119, chain 2 of 2, further chain): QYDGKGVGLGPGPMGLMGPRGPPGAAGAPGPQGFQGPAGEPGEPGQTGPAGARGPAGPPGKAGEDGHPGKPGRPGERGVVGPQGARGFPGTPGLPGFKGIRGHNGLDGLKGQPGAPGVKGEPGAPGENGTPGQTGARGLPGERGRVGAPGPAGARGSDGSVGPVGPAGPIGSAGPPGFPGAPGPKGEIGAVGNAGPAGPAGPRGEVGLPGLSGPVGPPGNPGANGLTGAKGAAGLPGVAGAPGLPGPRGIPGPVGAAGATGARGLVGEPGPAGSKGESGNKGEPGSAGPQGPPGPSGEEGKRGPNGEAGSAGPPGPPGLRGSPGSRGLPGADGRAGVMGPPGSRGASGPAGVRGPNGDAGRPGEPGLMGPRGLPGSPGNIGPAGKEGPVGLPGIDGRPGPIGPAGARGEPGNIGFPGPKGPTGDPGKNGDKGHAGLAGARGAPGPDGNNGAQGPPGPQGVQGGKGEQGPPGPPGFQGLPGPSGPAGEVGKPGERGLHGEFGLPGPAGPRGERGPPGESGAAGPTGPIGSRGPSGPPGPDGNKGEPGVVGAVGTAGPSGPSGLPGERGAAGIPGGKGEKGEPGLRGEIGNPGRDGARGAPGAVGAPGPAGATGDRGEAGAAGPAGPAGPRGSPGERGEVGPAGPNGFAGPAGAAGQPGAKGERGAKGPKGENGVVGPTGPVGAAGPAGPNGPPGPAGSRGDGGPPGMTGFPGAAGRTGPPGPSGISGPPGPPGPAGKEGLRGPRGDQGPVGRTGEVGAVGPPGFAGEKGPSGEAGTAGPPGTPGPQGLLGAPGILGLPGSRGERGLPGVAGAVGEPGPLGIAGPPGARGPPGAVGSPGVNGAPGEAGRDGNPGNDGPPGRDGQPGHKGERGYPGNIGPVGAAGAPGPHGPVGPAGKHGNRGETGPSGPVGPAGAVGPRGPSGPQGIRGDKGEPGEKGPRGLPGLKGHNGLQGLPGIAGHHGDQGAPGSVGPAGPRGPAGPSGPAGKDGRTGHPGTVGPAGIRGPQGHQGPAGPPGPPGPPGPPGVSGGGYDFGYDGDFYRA

Q: For “actMMP-2 (62-kDa APMA-activated form of matrix metalloproteinase-2) (enzyme)”, which Kd with 10-fold molar excess of (GPO)10 [1] is on record?
A: The Kd with 10-fold molar excess of (GPO)10 was 210 nM.

Q: What about the off rate with 10-fold molar excess of (GPO)10 [1] of the same substance?
A: Its off rate with 10-fold molar excess of (GPO)10 is 0.56 s⁻¹.

Q: What about the Kd [2] of the same substance?
A: The Kd was 250 nM.

Q: What about the bound [125I]-MMP (% of the radiolabeled MMP added) [3] of the same substance?
A: Its bound [125I]-MMP (% of the radiolabeled MMP added) is 4.8%.

Q: What about the bound [125I]-MMP (% of the radiolabeled MMP added) [4] of the same substance?
A: The bound [125I]-MMP (% of the radiolabeled MMP added) was 4.9%.

Q: And the bound [125I]-MMP (% of the radiolabeled MMP added) [5]?
A: The bound [125I]-MMP (% of the radiolabeled MMP added) was 7.4%.

Q: What about the bound [125I]-MMP (% of the radiolabeled MMP added) [6] of the same substance?
A: The bound [125I]-MMP (% of the radiolabeled MMP added) was 1.5%.

Q: What about the bound [125I]-MMP (% of the radiolabeled MMP added) [7] of the same substance?
A: The bound [125I]-MMP (% of the radiolabeled MMP added) was 14.3%.

Q: What about the bound [125I]-MMP (% of the radiolabeled MMP added) [8] of the same substance?
A: Its bound [125I]-MMP (% of the radiolabeled MMP added) is 6.8%.

Q: What about the bound [125I]-MMP (% of the radiolabeled MMP added) [9] of the same substance?
A: Its bound [125I]-MMP (% of the radiolabeled MMP added) is 4.4%.

Q: What about the bound [125I]-MMP (% of the radiolabeled MMP added) [10] of the same substance?
A: The bound [125I]-MMP (% of the radiolabeled MMP added) was 19%.

Q: What about the bound [125I]-MMP (% of the radiolabeled MMP added) [11] of the same substance?
A: The bound [125I]-MMP (% of the radiolabeled MMP added) was 10.7%.

Q: And the bound [125I]-MMP (% of the radiolabeled MMP added) [12]?
A: The bound [125I]-MMP (% of the radiolabeled MMP added) was 11.1%.

Q: And the bound [125I]-MMP (% of the radiolabeled MMP added) [13]?
A: The bound [125I]-MMP (% of the radiolabeled MMP added) was 6.2%.

Q: What about the bound [125I]-MMP (% of the radiolabeled MMP added) [14] of the same substance?
A: The bound [125I]-MMP (% of the radiolabeled MMP added) was 2.1%.

Q: What about the Kd [15] of the same substance?
A: Its Kd is 170 nM.

Q: And the koff [15]?
A: The koff was 0.48 s⁻¹.

Q: And the Kd with 10-fold molar excess of (GPO)10 [16]?
A: The Kd with 10-fold molar excess of (GPO)10 was 2710 nM.

Q: Which results are given for “actMMP-9 (86-kDa trypsin-activated form of matrix metalloproteinase-9) (from UniProt P14780 107-707) (enzyme)”?
A: Kd with 10-fold molar excess of (GPO)10 [1]: 1790 nM; off rate with 10-fold molar excess of (GPO)10 [1]: 0.61 s⁻¹; bound [125I]-MMP (% of the radiolabeled MMP added) [4]: 2.4%; bound [125I]-MMP (% of the radiolabeled MMP added) [5]: 1.8%; bound [125I]-MMP (% of the radiolabeled MMP added) [7]: 5%; bound [125I]-MMP (% of the radiolabeled MMP added) [8]: 2.1%; bound [125I]-MMP (% of the radiolabeled MMP added) [9]: 2.8%; bound [125I]-MMP (% of the radiolabeled MMP added) [12]: 3.1%; Kd [15]: 870 nM; koff [15]: 0.76 s⁻¹

Q: With “proMMP-2 (72-kDa latent proform of matrix metalloproteinase-2) (from UniProt P08253 30-660) (enzyme)” as the substance, how does the Kd with 10-fold molar excess of (GPO)10 [1] read?
A: Its Kd with 10-fold molar excess of (GPO)10 is 100 nM.

Q: And the off rate with 10-fold molar excess of (GPO)10 [1]?
A: The off rate with 10-fold molar excess of (GPO)10 was 0.37 s⁻¹.

Q: And the Kd with 10-fold molar excess of (GPP)10 [17]?
A: Its Kd with 10-fold molar excess of (GPP)10 is 42.1 nM.

Q: What about the Kd [2] of the same substance?
A: Its Kd is 7.1 nM.

Q: And the bound [125I]-MMP (% of the radiolabeled MMP added) [4]?
A: The bound [125I]-MMP (% of the radiolabeled MMP added) was 12.8%.

Q: What about the bound [125I]-MMP (% of the radiolabeled MMP added) [5] of the same substance?
A: Its bound [125I]-MMP (% of the radiolabeled MMP added) is 13.2%.

Q: And the bound [125I]-MMP (% of the radiolabeled MMP added) [7]?
A: Its bound [125I]-MMP (% of the radiolabeled MMP added) is 40%.

Q: What about the bound [125I]-MMP (% of the radiolabeled MMP added) [8] of the same substance?
A: Its bound [125I]-MMP (% of the radiolabeled MMP added) is 18.2%.

Q: And the bound [125I]-MMP (% of the radiolabeled MMP added) [9]?
A: Its bound [125I]-MMP (% of the radiolabeled MMP added) is 14%.

Q: And the bound [125I]-MMP (% of the radiolabeled MMP added) [12]?
A: Its bound [125I]-MMP (% of the radiolabeled MMP added) is 24%.

Q: What about the Kd [15] of the same substance?
A: The Kd was 70 nM.

Q: And the koff [15]?
A: The koff was 0.48 s⁻¹.

Q: What about the increase of the Kd with high molar excesses of P33-42 [18] of the same substance?
A: Its increase of the Kd with high molar excesses of P33-42 is under 50%.

Q: What about the Kd with 10-fold molar excess of (POG)5 [19] of the same substance?
A: Its Kd with 10-fold molar excess of (POG)5 is 156 nM.

Q: What about the Kd with 10-fold molar excess of (GPO)10 [16] of the same substance?
A: Its Kd with 10-fold molar excess of (GPO)10 is 156 nM.

Q: How did the Kd with 10-fold molar excess of (GPO)10 [1] turn out when “proMMP-9 (92-kDa latent proform of matrix metalloproteinase-9) (from UniProt P14780 20-707) (enzyme)” was run?
A: Its Kd with 10-fold molar excess of (GPO)10 is 1220 nM.

Q: And the off rate with 10-fold molar excess of (GPO)10 [1]?
A: Its off rate with 10-fold molar excess of (GPO)10 is 0.22 s⁻¹.

Q: What about the bound [125I]-MMP (% of the radiolabeled MMP added) [4] of the same substance?
A: Its bound [125I]-MMP (% of the radiolabeled MMP added) is 19.3%.

Q: And the bound [125I]-MMP (% of the radiolabeled MMP added) [5]?
A: The bound [125I]-MMP (% of the radiolabeled MMP added) was 7.4%.

Q: What about the bound [125I]-MMP (% of the radiolabeled MMP added) [7] of the same substance?
A: The bound [125I]-MMP (% of the radiolabeled MMP added) was 45%.

Q: What about the bound [125I]-MMP (% of the radiolabeled MMP added) [8] of the same substance?
A: The bound [125I]-MMP (% of the radiolabeled MMP added) was 20.4%.

Q: What about the bound [125I]-MMP (% of the radiolabeled MMP added) [9] of the same substance?
A: The bound [125I]-MMP (% of the radiolabeled MMP added) was 31.6%.

Q: What about the bound [125I]-MMP (% of the radiolabeled MMP added) [12] of the same substance?
A: The bound [125I]-MMP (% of the radiolabeled MMP added) was 30.9%.

Q: And the Kd [15]?
A: The Kd was 120 nM.

Q: What about the koff [15] of the same substance?
A: Its koff is 0.32 s⁻¹.
